These results are taken from a protein production outcome set (Wang et al. 2014).
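Note: failed if final PepcDB status was selected cloned or expressed and not failed if soluble or beyond.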

A short description of this data set: label from the status in PepcDB records.
Turning to “MTTHITKAPAYWSRDAIWPGIVAVGPMLPGTLAFGMAFGALCAQKNFTLAEVEVMMATVYGGLSQFVAVQAWPDQLTPSTIAALALLTTTVNIRFFLMTASMRPWFGTLPAWQAYPPLLLVTDGGWLAAMRYREHGGANAWFYLGGALVLYLVWLVSAIPGFLLAEQLADPKKFGVDIAMPAFFAALLVPAWKGPRRAIPWLVSGIVALTVHWLIPGYWFIIAGALSGAITAGLMDEPPVATSHAGHSS”, the protein production entry is “failed”.
Consider “MTTLLRNETPRRCAFWRGARGILAFVLALALTIQGVAPAWAFLGLGGFTIKDEVELGRKFDVLIKSRMPLVEDPEVKVYVQDIVARLLEQAPPQPFDFKTNVLLHNSLNAFASPGGFIFVHTGLVMQMDHEAEVAGVLAHELAHATQRHIAGRIEKMQTTSILSMAGALAGAFLGGGSGKGAAMAGSIAAGQSAMLNYSRVDETEADEIGLRYLIAAGFRPEGMVGAFEKIRKKQWAMGTDIPSYLSTHPAVNERINSLSARIAALPADIRSRPNDDARFLRVRTICRARYGDPAVSERLFADAPAGDCLAQLGKAILFSRQNRVAEATAAFDKALQCSPKDQLIWREAGRFHYTKGDKGRAAAMLQRATLMNPDDYMALFFYARLLADSGQPQKSYQYFDEVLRRLPEDAEVHYYYGRVLGASGQPFKAYLHLAYSSLYSNDKHKTESFEEQARAQARTPEEMAELERFAATYQERKAFW”, for which the protein production result was “failed”.
“MTTLRTLMAVSLVLNLAACGFKLRGQVSELPFERVYITAPAGLTIGSDLERVISTHTRAKVVNKAEKSEAIIQIVHAIREKRILSLSESGRVREFELVYRVAARLLDAHNAELASLQEIRLTRILPFLDAQELAKAAEEEMLYKDMQKDAVQQILRQVSAVTSAGLEHHHHHH”: the protein production result is recorded as “not failed”.
With “MTTTQPEAKDRISSLPVPDATQVPEGVRKLWAKAEANIGFVPNVFRAQAVNGEQFLAWWNYFNLLLNKEGYLTNAERELVAVVVSGVNRCLYCAVSHGAALREFLGDPQKADAVAVNWRHADLTEREQALAAYAEKLTRHPAEVTAADLEPLRAVGLDDHQIMELVQVIGMFNLTNRVSSALGFVPNPEYYRQAR”, the protein production result was “not failed”.
With “MTTTTNKAWRTICKATELVKDSGISALIANSAGEDEQIAIFHIPNSEEKIYAVGNYDPIGQANVLYRGLVGCIDDEPVVSSPLYKQHYSLKTGRCLQEDQTIAVYDIRIENEQVQLFYLEHHHHHH”, the protein production entry was “failed”.
Take “MTTVIVGAGRIGSSVIELAADANIGVTVIEQEHERAHEFKADENCHVIHDDATERETLHEAEVGNADAIIATTDQDTTNLMVLMLARELGCETLVSVVHAEENIPLFRQLGATIIENPQRLIAEYLFRGTHDPGIQGFMHVGDRDGGAEVFEISVADGAPIIGKTLEQADVAGFLPPSMVVVAVERDGEIIIPRGNTQIETDDLVTVFSKEGIINEVVEPFKPEAKRTGDSDTE”: the protein production result is recorded as “failed”.
Regarding “MTTVRTRIAPSPTGDPHVGTAYIALFNLCFARQHGGQFILRIEDTDQLRSTRESEQQIYDALRWLGIEWDEGPDVGGPHGPYRQSERGHIYKKYSDELVEKGHAFTCFCTPERLDAVRAEQMARKETPRYDGHCMHLPKDEVQRRLAAGESHVTRMKVPTEGVCVVPDMLRGDVEIPWDRMDMQVLMKADGLPTYFLANVVDDHLMGITHVLRGEEWLPSAPKLIKLYEYFGWEQPQLCYMPLLRNPDKSKLSKRKNPTSITFYERMGYLPQALLNYLGRMGWSMPDEREKFTLAEMIEHFDLSRVSLGGPIFDLEKLSWLNGQWIREQSVEEFAREVQKWALNPEYLMKIAPHVQGRVENFSQIAPLAGFFFSGGVPLDASLFEHKKLDPTQVRQVLQLVLWKLESLRQWEKERITGCIQAVAEHLQLKLRDVMPLMFPAITGHASSVSVLDAMEILGADLSRYRLRQALELLGGASKKETKEWEKIRDAIPG”, the protein production result is “failed”.
Turning to “MTVAIPDLRVCANLTGKTLLICVGAAKCATSWLHDYLGSRPEVTVSPLKELHFFDSKFPEHALGDADGLALARLSFQLGQAGDAVANLRHRAIFQASLDRAQMIYDDNAYFGHFARLCGPQTRCFCDLTPSYSAIGAEGFAYMKRFCASQDIEVKILFLMRDPVRRFWSQLRHLQQMNPVNDVASKWRHALTAPALLARADYRGIVLALEQVFPSANLLCLFYESLFEGDDAIRRLCRFIGIPFAPAATGQRHNETTVRLPLSDDARDAFRHLLAPQYDFCRERFGRSIPGSWLA”, the protein production result is recorded as “failed”.
For the sequence “MTVAVIGAHGGIGRRLLPRLNEAGHDPIGVVRSEDQFAAIRDRGAEPRLGDLEGEVASALDGADAVVFTAGAGGSTGWDKTILVDLWGAERAVHACEEKEIDRFVMVSSRGAGDPESRQGPIKPYIVAKHVADRTLQRSSLDETILRPTRLTDAEGTGRVAAYVDTDPDAGDPIPRADVAQAVVQCLADDNTVGHAITLYGGDTPIGEALRPSGLEHHHHHH”, the protein production entry is listed as “failed”.
The entry for “MTVAYIAIGSNLASPLEQVNAALKALGDIPESHILTVSSFYRTPPLGPQDQPDYLNAAVALETSLAPEELLNHTQRIELQQGRVRKAERWGPRTLDLDIMLFGNEVINTERLTVPHYDMKNRGFMLWPLFEIAPELVFPDGEMLRQILHTRAFDKLNKW” is “failed”.
Consider “MTVEQNVLQQSAAQKHQQTFLNQLREITGINDAQILQQALKDSNGNLELAVAFLTAKNAKTPPQEET”, for which the protein production result is recorded as “not failed”.
For the sequence “MTVSQDILLTDHFKQWIEIFKKGKVSDGTYRKYLYTLSVLKKHFSTATIKTMNRVKYQEMLNEFAEGHSDSSVKQINVHVRASLENLLDDFIIKNDFTKGLEHHHHHH”, the protein production entry is “failed”.
“MTVTDHILPTATNGRPPGLIIAAPSTNSGKTTVTLALHAALRRRSLTVQPYKCGPDYIDPAFHEIAAGRPCYNLDSWAFGQDRITYLLDAAAGADLCLAEGVMGLFDGGSARGAWGNGATADIAAFTGWPVVLVIDVAGQAQSAAALALGFARYRSDVRIAGVILNNVASARHEALVRDGFAAQDIPVLGGFERQRDLTLKNRHLGLVQARETARLDIRLQQLADSAVRGIDLDALIRAAQPARPIASTIRPLTPPGQRIALAHDDAFSFIYPHLTAGWRAAGAEIVPFSPLNDEGPDPSCDAAWLPGGYPELHAGRLAAATRFKAALGAFAETRAVHGECGGYMTLGAGLIDADGTRHAMAGLLGLETDFASRKLHLGYRLATLHADAAGKAAGSVLRGHEYHYARVVTVADEPLAEIRDPAGQLTDETGSRRGHVTGTFFHLIDVAEEAIALEHHHHHH”: the protein production result is recorded as “failed”.
Turning to “MTVVVERQISHPPEKLWRALTQPHLIEEWLMKNDFKPAVGHRFNISADWGGVLDCEVLAVEPNKTLSYTWNLAHQDPAFDLRSVVTFTLTPTPTGTHLRMEQSGFRPDQRRAYGGAKMGWPQFFEKLEQLLDRTDLEHHHHHH”, the protein production entry is recorded as “not failed”.
On to “MTVVWINGAFGAGKTTTARELIELIPNSTLFDPEVVGGALAHLLPPKRLAEVGDFQDLPIWRRLVIDTAAALLADLGGTLVVPMTLLRQEYRDEIFGGLAARRIEVRHILLAPAETILRERIASREVPRDLPDGELRTRQWSYDHIEPYRAALASWLTADAHPVDTGALTPYEAAARVAEAVGSGAVPACEIVQTPEPTGETVAAGVLLFDERDRVLLVDPTYKPGWEFPGGVVEPGEAPARAGMREVAEETGLSLRDVPALLVVDWEPPAPPAYGGLRLLFDGGRLDAADAGRVLLPGPELRDWRFATEDEAAGLLPPVRYERLRWALRARERGAAHYLEAGTPVGLEHHHHHH”, for which the protein production result is reported as “failed”.
As for “MTVWDRPEPPHRPVPLDRERIVAAAVALADEGGLTAVSVRKVAARLDAGPMRLYGFISTKDELFDLMVDAVYAEILPEERAGDWREALRVLAHRTRQAALRHPWLADLLGGRPALGPNGLAVAEATLAALDGLADVDTVMRAVETVSSYFTGAVRREIADLRAERATGLSKPEWQREHGPHLTRMLATGRYPALAKAVHDGTHVDAEESFATGLDWVLDAVAVRLARPPGS”, the protein production result is reported as “not failed”.
Consider “MTVWFVAAVAVLIIELLTGTVYLLVVSAALAGSGIAYGLTGSTPAAVLTAALLSALGIWFVHAKTAVGKVETDSYQDLDTGKYAEILRYTGGNRYEVFYRGTHWQAQNTGQEVFEPGTRALIVRKEGNLLIIANP”, for which the protein production result was “failed”.
With “MTWCSLSVISCTRFYSRQRTAMLNSLKQEKFLLLALLAAVAAYPLEHLLLGSGQGIALGAGLVLIGFIVMASMRVAHHAELLAEKVGDPYGTMILTLAAVLVEVVILAIMMSNEASPTLVRDTIYSAVMLDINGILGLAALMGGIKHGEQPYNDDSARTYSVMILTAMGVSMVVPEFIPEADWKVYSAFTIGAMVVLYTLFLRMQVGPHSYFFSYSYPEKRRNKEAQEQPHAINLAWSIGILVFGVVVIGALAEVMSKTLDLGLEGTGAPPVITAILVAAISAAPEILTALRAALANRMQSVVNVALGASLSTVILTVPVMEAMALYTGQPFQMAMTPVQTVMVFITLIVSAINLNDGETNAIEGMTHFVLFATFIMLSLLGL”, the protein production entry is “failed”.
The entry for “MTWLLFGAGNGVGGCLLQRAIECEQAVVLVLRNPEQAKHWREQGVTVVEGDACDPETVAEACRVAGPSAIVVSTMGGGTVNYQGHRTVIDGAEQAGIKRMLLVTSLGCGDSWPLLSPRARAAFGFAVREKSLAESWLQSSTLDHCIVRPGGLLDVVATHNAKLTQGAATLGLVSRSDVALAVDQLLQQPVFGNHIYNLIDPDLTMPAIPLEHHHHHH” is “failed”; for “MTWPARRVLYAIWQDPWMTVSRATYISRMLALVNWATWPDDADTSDTPAACVDGDCSRPNAPGERYPTFRWSDALVRELDAVLLSTEPYRFTEDHADALERQIGKPVLLVDGEMLSWYGSRAVAGARYLRSLAQGFLEHHHHHH” it is “failed”; for “MTWQPFYVGTGQAPAGAEEQVVLPPAPPWREFPRRSQHRQFVPPPRLAEAVNAALALRRPLLVTGPAGSGKSTVIEQVAAELALGDVLRWHITSRSSLAEALYRYDALGRIHAQRLEGPGGSDDIAPFLRMGPLGTALLPSARPRALLIDEIDKSDLDLPSDLLDVLERGEFEIPELARYGTDVVPVREHGGERTHLIARGRVQCAEFPFIVMTSNGDRDFPAAFLRRCIRFTMPLPTPETLLRVVEAHMGPEKAAADETGRLITVFLERLTAGESLAVDQLLNAVHLLTGDGAPGDDRRQAIAELILRELSHALEHHHHHH” it is “failed”.
As for “MTWQQFKQQYLVRFWAPMPAVIAAGILSTYYFGLTGTFWAVTGEFTRWGGHLLQLVGANPETWGYFKVIGLQGSPLDRIDGMMIIGMFGGCIAAALWANNVKLRMPQSRIRIAQALIGGIIAGFGARLAMGCNLAAFFTGIPQFSLHAWFFALATAAGSYFGARFTLLPMFRIPVKLKKVDKASSVKQDENQARLRFRIGMLVFAAIIGWGLLTMFNAPKLGIAMLCGVGFGLLIERAQICFTSAFRDMWITGRTHMAKAIILGMAVSAIGIYSYVQLGVPPKIMWAGPNAVIGGLLFGFGIVLAGGCETGWMYRAVEGQVHFWWVGLGNVLGSTLLAYYWDDLAQPLATNWDKVNLLTSFGDKGGLLVTYLLLALSFAAMLLWEKRFFARKAKRDEQLIAEAA”, the protein production entry was “failed”.
In the case of “MTYLFVAAGGALGSTLRYWLSGLIAGAIGQSFPWGTLVINISGSIVIGAFATLTGPDGRVFIPGDWRQFFMVGVCGGYTTFSSFSLQTLTLAQEGQGLWAAANVVLSVVFCLIGVWLGHVGAVLINEGV”, the protein production entry was “failed”.
As to “MTYLQTTADFYAEVAQTPEVGLCCVQSSPLQLPGLVIPAVMQEMNYGCGSTVHPNELGNKSKVLYVGVGGGLEALQFAYFCRQPGAVIAVDPVEAMRQAAQRNLQLAAEKNDWFSVDFVDIRAGDAFTLPVPDNSVDVVAQNCLFNIFEPEDLSRALKEAYRVLKPHGRLIMSDPIAARPIPQHLRQDERLRAMCLSGALTYAEYIQHLIDTGFGQIEIRARRPYRLLDSVTYKLDENLLLESLDSVSFKVPIPSDGACVFTGKTAIYAGSDPLFDDQAGHILQQGVPSAVCDKTALNLGSTYPNKILITDSTWYYDGGGCC”, the protein production entry is given as “failed”.
